Reference: FireProtDB (doi:10.1021/bi301421v)
Where “and” joins values, the source holds several entries; their conditions need not be identical. Identical values can stand only once.

B1: Arginase, O25949 (parent)
chain: MILVGLEAELGASKRGTDKGVRRLREALSATHGDVIKGMQTITQERCVLYKEFRYAKNFEDYYLFCKENLIPCMKEVFEKKEFPLILSSEHANMFGIFQAFRSVHKDKKIGILYLDAHADIHTAYDSDSKHIHGMPLGMVLNRVRSGFNRMSESEEKAWQKLCSLGLEKGGLEIDPKCLVYFGVRSTEQSERDVIRELQIPLFSVDAIRENMQEVVQKTKESLKAVDIIYLSLDLDIMDGKLFTSTGVRENNGLSFDELKQLLGLLLESFKDRLKAVEVTEYNPTVSIKHNNEEEKQVLEILDLIINSCKIKDKKHSFARSY

Variants of: B1
Settings: Helicobacter pylori (strain ATCC 700392 / 26695); pH 7.2; Thermal; CD; Tris-HCl 20 mM; transition: 2; reversible: yes; structure 4G3H; whole UniProt chain shown

Row | Variant | Tm | change of melting temperature, mutant - wild type (higher = more stable)
1 | Q160A | 64.4 °C and 62.8 °C | -5.6 °C and -5.2 °C
2 | L162A | – | -2.7 °C and -7 °C
3 | W159F | 64.8 °C and 59.9 °C | -5.2 °C and -8.1 °C
4 | W159A | 51 °C | -17 °C
5 | E153A | 69.8 °C | -0.2 °C
6 | E156A | 59 °C | -9 °C
7 | S164A | 70.7 °C | 0.7 °C
8 | K157A | 57.7 °C | -10.3 °C
9 | D126A | 61 °C | -7 °C
